This is an account of results in doi:10.1101/2023.09.15.557927 (bioRxiv, 2023).

The target of assay [1] is T1, 6xHis-tagged LC8 (DYNLL2) (human, UniProt Q96FJ2 1-89). The assay is described as follows: fluorescence polarisation. (In fluorescence polarisation assays a small probe gives low polarisation when free and higher when bound to something large.)
Assay [2] deals with T1, 6xHis-tagged LC8 (DYNLL2). Briefly: SPR. (Surface plasmon resonance follows binding to a sensor surface in real time, without labels.)
Target sequence in this assay (Q96FJ2 whole entry): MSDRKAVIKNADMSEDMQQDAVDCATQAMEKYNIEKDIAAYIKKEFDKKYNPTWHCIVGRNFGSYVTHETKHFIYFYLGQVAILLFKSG

No end group written: not given here. *: point of attachment. FITC = O=C1OC2(c3ccc(O)cc3Oc3cc(O)ccc32)c2ccc(NC(=S)*)cc21

B1: OFD1 peptide (KESCNMETQTS) (peptide)
peptide: KESCNMETQTS
Broadly, the Kd is a measure of binding affinity in units of concentration. Higher therefore signals weaker binding. Regarding B1, the Kd in assay [1] stood at 12.8 µM; in assay [2], 12.5 ± 1.3 µM.

B2: FITC-labeled BMF peptide (FITC-TSQEDKATQTL) (peptide)
peptide: {FITC}-TSQEDKATQTL
With B2, the binding result in assay [1] is “binds”.
